Experimental data: article PMC7089426, “C8J_1298, a bifunctional thiol oxidoreductase of Campylobacter jejuni, affects Dsb (disulfide bond) network functioning” (PLoS ONE, 2020)

Target: the molecule itself
Assay: cross-linking; glutaraldehyde (0.0001-0.02% v/v), C8J_1298 at 1.8 mg/ml, room temperature, 20 min, 0.05 M bicine-NaOH pH 8.5, 0.1 mM DTT, 0.4 M NaCl; quenched with ethanolamine-HCl pH 8.0

B1: C8J_1298, periplasmic dimeric thiol oxidoreductase of Campylobacter jejuni 81116 (recombinant, lacking the signal sequence, C-terminal His-Tag) (enzyme)
chain: ASNSEISDFYSKSIKAQFPNATVSVSNRQKVGNTGFESVIVSVELNGQKQENILFTKDSLITPDLIDLKTGISYAQEYEMKKFQEARENFTKNAKAVAQKETMVIALGDKNKPAIYVFSDPECPYCREHLAQIDDELKNYQVNYILTPVHGKSAFEKSALIYKEAKKAKNDKEKIAILNKYYDANIKNYPKVSDAELKEVFSLYEKYRSLGLSATPTIIK
- stoichiometry N: 2
